From patent US20240141039A1 (AGENUS, published 2024)

Biological target: T1, wild type full-length cynomolgus monkey TIGIT expressed on CHO cells (cynomolgus monkey, UniProt A0A7N9I9V4 89-312)
T1 construct: whole, on cells; also called cynomolgus TIGIT-CHO cells
Experiment: flow cytometry on CHO cells expressing cynomolgus TIGIT, PE anti-human IgG Fc detection

T1 sequence (A0A7N9I9V4 entry or part of it): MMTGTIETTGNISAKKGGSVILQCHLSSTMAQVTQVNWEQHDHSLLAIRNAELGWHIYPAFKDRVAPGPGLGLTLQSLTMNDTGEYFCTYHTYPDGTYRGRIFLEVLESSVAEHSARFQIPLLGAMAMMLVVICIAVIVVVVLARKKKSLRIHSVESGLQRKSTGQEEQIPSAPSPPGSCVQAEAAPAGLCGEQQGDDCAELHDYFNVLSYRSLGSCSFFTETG

B1: anti-TIGIT×CD96 multispecific molecule BA123 (bispecific antibody, human IgG1, kappa, lambda)
heavy 1: QVQLVQSGAEVKKPGASVKVSCKASGYTFTSYGISWVRQAPGQGLEWMGWISAYNANTNYAQKLQGRVTMTTDTSTSTAYMELRSLRSDDTAVYYCARSAGVLGGMDVWGRGTLVTVSSASTKGPSVFPLAPSSKSTSGGTAALGCLVKDYFPEPVTVSWNSGALTSGVHTFPAVLQSSGLYSLSSVVTVPSSSLGTQTYICNVNHKPSNTKVDKRVEPKSCDKTHTCPPCPAPELLGGPDVFLFPPKPKDTLMISRTPEVTCVVVDVSHEDPEVKFNWYVDGVEVHNAKTKPREEQYNSTYRVVSVLTVLHQDWLNGKEYKCKVSNKALPAPIEKTISKAKGQPREPQVYTLPPSREEMTKNQVSLSCAVKGFYPSDIAVEWESNGQPENNYKTTPPVLDSDGSFFLVSKLTVDKSRWQQGNVFSCSVMHEALHNHYTQKSLSLSPG
light 1: not shown
heavy 2: EVQLVQSGAEVKKPGSSVKVSCKASGYTFASYGISWVRQAPGQGLEWMGGITPFFNRVDVAEKFQGRVTITADKSTSTAYIELSSLRSEDTAVYYCARDLRRGGVGDAFDIWGRGTLVTVSSASTKGPSVFPLAPSSKSTSGGTAALGCLVKDYFPEPVTVSWNSGALTSGVHTFPAVLQSSGLYSLSSVVTVPSSSLGTQTYICNVNHKPSNTKVDKRVEPKSCDKTHTCPPCPAPELLGGPDVFLFPPKPKDTLMISRTPEVTCVVVDVSHEDPEVKFNWYVDGVEVHNAKTKPREEQYNSTYRVVSVLTVLHQDWLNGKEYKCKVSNKALPLPEEKTISKAKGQPREPQVYTLPPSREEMTKNQVSLWCLVKGFYPSDIAVEWESNGQPENNYKTTPPVLDSDGSFFLYSKLTVDKSRWQQGNVFSCSVMHEALHNHYTQKSLSLSPG
light 2: QSALTQPRSVSGSPGQSVTISCTGTSPDVGSHAYRSWYQQHPGKAPKLMIYEVSYRPSGVSNRFSGSKSGNTASLTISGLQAEDEADYYCSSYPPSSATVFGAGTKLTVLGQPKAAPSVTLFPPSSEELQANKATLVCLISDFYPGAVTVAWKADSSPVKAGVETTTPSKQSNNKYAASSYLSLTPEQWKSHRSYSCQVTHEGSTVEKTVAPTEC
notes: copies: 1 + 1 + 1 + 1
In the case of B1, the “EC50 (read off the curve)” value is reported as ~0.2 µg/mL.
